Like-named read-outs stand apart in the source and are kept apart here. Blank lines part the entries; values can stand above or below the molecule they belong to.
Assays:
[1] = type: physicochemical
Description: HPLC sample standards were prepared by dissolving KLG, MeKLG, ascorbic acid (ASA), and butyl-KLG to the appropriate concentration in water. Samples of these standards were placed in filled and sealed vials, stored at room temperature, and analyzed periodically. The HPLC was calibrated on the area response for standards that were injected onto the HPLC as soon as possible after the preparation of the standards.

[2] = enzyme screen for hydrolysis/methanolysis of butyl-KLG (HPLC of products and remaining substrate); type: biochemical; set-up: KLG formed / MeKLG formed / ASA formed / BuKLG (remaining substrate): unit: ppm
Description: Initial enzyme screens were carried out as follows. Enzyme (typically 10 mg), aqueous buffer (typically 860 microliters (ul) or 550 ul), aqueous 0.2M CaCl2 (10 ul), methanol (typically 90 ul or 400 ul), and an aqueous solution of substrate (typically 90 ul of butyl-KLG at a typical concentration of 110,000 ppm) were added to a 2 ml polypropylene centrifuge tube. The resulting solution was vortexed briefly and placed on a shaker bath at 300 rpm at 38° C. (typically for 18 hours or more). After incubation, samples were centrifuged at 14,000 G's (14,000 times gravity) for 20 minutes to remove enzyme, sampled (300 ul), and diluted to one milliliter with distilled water. If not analyzed by HPLC within the day, samples were frozen prior to analysis.
The data were reported in terms of parts per million of KLG, MeKLG, ascorbic acid (ASA) and butyl-KLG. […] Samples labeled as "no enzyme" were controls within a given run. The controls contained substrate but no enzyme and thus represented experimental and HPLC background data.

[3] = Table 4: 38° C., 47.5 Hours, 38% Methanol-Water, 0.1M MES Buffer
[4] = Table 7: 38° C., 19 Hours, 8.6% Methanol-Water, 0.1M MES
[5] = Table 8: 38° C., 21 Hours, 8.6% Methanol-Water, 0.2 M MES
[6] = Table 3: 38° C., 16 Hours, 38% Methanol-Water, 0.1M MES Buffer
[7] = Table 5: 38° C., 19 Hours, 38% Methanol-Water, 0.1 M MES Buffer
[8] = Table 6: 38°, 19 Hours, 8.6% Methanol-Water, 0.1 M MES

- Amount Found ([1]; 50 ppm standard, 0 minutes): 51 ppm
- Amount Found ([1]; 50 ppm standard, 400 minutes): 39.9 ppm
- Amount Found ([1]; 50 ppm standard, 715 minutes): 52 ppm
- Amount Found ([1]; 100 ppm standard, 0 minutes): 102 ppm
- Amount Found ([1]; 100 ppm standard, 400 minutes): 94.3 ppm
- Amount Found ([1]; 100 ppm standard, 715 minutes): 81.8 ppm
- Amount Found ([1]; 500 ppm standard, 0 minutes): 510 ppm
- Amount Found ([1]; 500 ppm standard, 400 minutes): 479 ppm
- Amount Found ([1]; 500 ppm standard, 715 minutes): 493 ppm
Molecule: O=C(O)C(=O)[C@@H](O)[C@H](O)[C@@H](O)CO [KLG, 2-keto-L-gulonic acid]

- Amount Found ([1]; 50 ppm standard, 0 minutes): 51.4 ppm
- Amount Found ([1]; 50 ppm standard, 400 minutes): 47.7 ppm
- Amount Found ([1]; 50 ppm standard, 715 minutes): 43 ppm
- Amount Found ([1]; 100 ppm standard, 0 minutes): 103 ppm
- Amount Found ([1]; 100 ppm standard, 400 minutes): 106.8 ppm
- Amount Found ([1]; 100 ppm standard, 715 minutes): 90.2 ppm
- Amount Found ([1]; 500 ppm standard, 0 minutes): 514 ppm
- Amount Found ([1]; 500 ppm standard, 400 minutes): 496 ppm
- Amount Found ([1]; 500 ppm standard, 715 minutes): 495 ppm
Molecule: COC(=O)C(=O)[C@@H](O)[C@H](O)[C@@H](O)CO [MeKLG, methyl-2-keto-L-gulonate]

- ASA formed [2, 3]: 108 ppm
- KLG formed [2, 3]: 54 ppm
- MeKLG formed [2, 3]: 189 ppm
- ASA formed [2, 4]: 156
- KLG formed [2, 4]: 229
- MeKLG formed [2, 4]: 278
- ASA formed [2, 5]: 54 ppm
- KLG formed [2, 5]: 243 ppm
- MeKLG formed [2, 5]: 283 ppm
B1: Mucor meihei Lipase: Mucor meihei Lipase (protein, UniProt P19515 95-363, looked up)
Lipase: SIDGGIRAATSQEINELTYYTTLSANSYCRTVIPGATWDCIHCDATEDLKIIKTWSTLIYDTNAMVARGDSEKTIYIVFRGSSSIRNWIADLTFVPVSYPPVSGTKVHKGFLDSYGEVQNELVATVLDQFKQYPSYKVAVTGHSLGGATALLCALDLYQREEGLSSSNLFLYTQGQPRVGDPAFANYVVSTGIPYRRTVNERDIVPHLPPAAFGFLHAGEEYWITDNSPETVQVCTSDLETSDCSNSIVPFTSVLDHLSYFGINTGLCT
- BuKLG (remaining substrate) [2, 3]: 7041 ppm
- BuKLG (remaining substrate) [2, 4]: 8620
- BuKLG (remaining substrate) [2, 5]: 7067 ppm

The next lines start with the molecule.

Molecule: O=C1O[C@H]([C@@H](O)CO)C(O)=C1O [ASA, ascorbic acid]
- Amount Found ([1]; 50 ppm standard, 0 minutes): 53.4 ppm
- Amount Found ([1]; 50 ppm standard, 400 minutes): 28.3 ppm
- Amount Found ([1]; 50 ppm standard, 715 minutes): 0 ppm
- Amount Found ([1]; 100 ppm standard, 0 minutes): 107 ppm
- Amount Found ([1]; 100 ppm standard, 400 minutes): 96.6 ppm
- Amount Found ([1]; 100 ppm standard, 715 minutes): 57.2 ppm
- Amount Found ([1]; 500 ppm standard, 0 minutes): 534 ppm
- Amount Found ([1]; 500 ppm standard, 400 minutes): 487 ppm
- Amount Found ([1]; 500 ppm standard, 715 minutes): 473 ppm

B2: Rhizopus Niveus Lipase: Rhizopus Niveus Lipase (protein, UniProt P61871 96-392, looked up)
Lipase: DDNLVGGMTLDLPSDAPPISLSSSTNSASDGGKVVAATTAQIQEFTKYAGIAATAYCRSVVPGNKWDCVQCQKWVPDGKIITTFTSLLSDTNGYVLRSDKQKTIYLVFRGTNSFRSAITDIVFNFSDYKPVKGAKVHAGFLSSYEQVVNDYFPVVQEQLTAHPTYKVIVTGHSLGGAQALLAGMDLYQREPRLSPKNLSIFTVGGPRVGNPTFAYYVESTGIPFQRTVHKRDIVPHVPPQSFGFLHPGVESWIKSGTSNVQICTSEIETKDCSNSIVPFTSILDHLSYFDINEGSCL
- ASA formed [2, 6]: 17 ppm
- BuKLG (remaining substrate) [2, 6]: 10453 ppm
- KLG formed [2, 6]: 80 ppm
- MeKLG formed [2, 6]: 252 ppm
- ASA formed [2, 5]: 61 ppm
- BuKLG (remaining substrate) [2, 5]: 7102 ppm
- KLG formed [2, 5]: 178 ppm
- MeKLG formed [2, 5]: 181 ppm

B3: Subtilisin Carlsberg: Subtilisin Carlsberg (a protease) (protein, UniProt P00780 106-379, looked up)
Subtilisin Carlsberg: AQTVPYGIPLIKADKVQAQGFKGANVKVAVLDTGIQASHPDLNVVGGASFVAGEAYNTDGNGHGTHVAGTVAALDNTTGVLGVAPSVSLYAVKVLNSSGSGSYSGIVSGIEWATTNGMDVINMSLGGASGSTAMKQAVDNAYAKGVVVVAAAGNSGSSGNTNTIGYPAKYDSVIAVGAVDSNSNRASFSSVGAELEVMAPGAGVYSTYPTNTYATLNGTSMASPHVAGAAALILSKHPNLSASQVRNRLSSTATYLGSSFYYGKGLINVEAAAQ
- levels of activity / conversion of butyl-KLG ([2]; Example 4: 38% methanol-water, MES, pH 5 to 5.8): particularly high levels of activity
- ASA formed [2, 3]: 0 ppm
- BuKLG (remaining substrate) [2, 3]: 0 ppm
- KLG formed [2, 3]: 3072 ppm
- MeKLG formed [2, 3]: 47 ppm
- ASA formed [2, 4]: 0
- BuKLG (remaining substrate) [2, 4]: 4428
- KLG formed [2, 4]: 4463
- MeKLG formed [2, 4]: 93

B4: L-7 (Porcine pancreas): Lipase (Porcine pancreas) (protein, UniProt P00591 1-450, looked up)
Pancreatic triacylglycerol …: SEVCFPRLGCFSDDAPWAGIVQRPLKILPWSPKDVDTRFLLYTNQNQNNYQELVADPSTITNSNFRMDRKTRFIIHGFIDKGEEDWLSNICKNLFKVESVNCICVDWKGGSRTGYTQASQNIRIVGAEVAYFVEVLKSSLGYSPSNVHVIGHSLGSHAAGEAGRRTNGTIERITGLDPAEPCFQGTPELVRLDPSDAKFVDVIHTDAAPIIPNLGFGMSQTVGHLDFFPNGGKQMPGCQKNILSQIVDIDGIWEGTRDFVACNHLRSYKYYADSILNPDGFAGFPCDSYNVFTANKCFPCPSEGCPQMGHYADRFPGKTNGVSQVFYLNTGDASNFARWRYKVSVTLSGKKVTGHILVSLFGNEGNSRQYEIYKGTLQPDNTHSDEFDSDVEVGDLQKVKFIWYNNNVINPTLPRVGASKITVERNDGKVYDFCSQETVREEVLLTLNPC
- ASA formed [2, 3]: 120 ppm
- BuKLG (remaining substrate) [2, 3]: 5488 ppm
- KLG formed [2, 3]: 94 ppm
- MeKLG formed [2, 3]: 884 ppm
- ASA formed [2, 4]: 106
- BuKLG (remaining substrate) [2, 4]: 5392
- KLG formed [2, 4]: 1007
- MeKLG formed [2, 4]: 575

B5: Hog Pancreatic Lipase: Hog Pancreatic Lipase, Fluka (protein, UniProt P00591 1-450, looked up)
Pancreatic triacylglycerol …: B4 Pancreatic triacylglycerol …
- ASA formed [2, 7]: 130 ppm
- BuKLG (remaining substrate) [2, 7]: 11114 ppm
- KLG formed [2, 7]: 58 ppm
- MeKLG formed [2, 7]: 529 ppm
- ASA formed [2, 8]: 158 ppm
- BuKLG (remaining substrate) [2, 8]: 5284 ppm
- KLG formed [2, 8]: 890 ppm
- MeKLG formed [2, 8]: 791 ppm

Source: patent US5817490A, “Enzymatic process for the manufacture of ascorbic acid 2-keto-L-gulonic acid and esters of 2-keto-L-gulonic acid” (Eastman Chemical Company, priority 1997, dated 1998)
